One substance from patent US20130171235A1 can be followed below.

The test addresses PTEN-long (endogenous human form, translated from the upstream CUG start site of PTEN mRNA) (Homo sapiens). As to the kind of experiment: concanavalin A sepharose pulldown from HEK293 lysate, immunoblot. On the technique in general: A western blot detects proteins with antibodies after separation by electrophoresis.

On to “concanavalin A (lectin, on sepharose) (from UniProt P02866)”, for which the share of PTEN-long in the PTEN pulled down was determined as 50%.
